{"source": "patent US20060116325A1", "about": "“Methods and compositions for inhibiting hiv-coreceptor interactions” (priority 2001, published 2006)", "key": {"CXCR4 [1]": {"target": "T1, CXCR4 (Homo sapiens, UniProt P61073)", "T1 sequence (P61073 whole entry)": "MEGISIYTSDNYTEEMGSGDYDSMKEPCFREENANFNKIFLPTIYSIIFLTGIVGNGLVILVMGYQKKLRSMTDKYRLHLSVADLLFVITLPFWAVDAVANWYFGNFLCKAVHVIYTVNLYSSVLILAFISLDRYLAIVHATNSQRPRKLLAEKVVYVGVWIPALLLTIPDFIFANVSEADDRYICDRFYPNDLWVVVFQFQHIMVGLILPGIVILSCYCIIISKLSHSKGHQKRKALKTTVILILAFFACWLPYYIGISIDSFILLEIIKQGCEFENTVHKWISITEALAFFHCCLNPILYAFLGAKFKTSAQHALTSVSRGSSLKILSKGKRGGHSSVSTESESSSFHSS", "assay": "Competition with 125I-SDF-1α binding to CEMx174 cells", "set-up": "host or cells: CEMx174 (174xCEM)", "settings": "room temperature, 0.1% sodium azide, FIG. 7B, 7C", "experimental": "FIGS. 7A through 7C depicts the inhibition of chemokine receptor ligand binding by peptide pre-treatment. FIG. 7A. Effect of pre-treatment with peptides 15K and 15D on the binding of MIP-1β to SupT1/CCR5 cells; FIG. 7B. Effect of pre-treatment with peptides 15K and 1SD on the binding of SDF-1α to CEMx174 cells; and FIG. 7C. Effect of pre-treatment with 15K and control peptide 15GIG on the binding of SDF-1α to CEmx174 cells. Binding studies were performed as described in Materials and Methods.\nBinding assays were performed with HEK-CCR5 or HEK CXCR4 in triplicate by adding unlabeled competitor (anti-coreceptor binding peptide or control chemokine) and radiolabeled chemokine, 0.2 ng/ml (^125I-MIP-1β or SDF-1α, specific activity 2000 Ci/mmol, NEN Life Science Products) to a cell suspension (4×10^5 cells in 200 μl) in RPMI 1640 supplemented with 1% bovine serum albumin and 25 mM HEPES pH 8.0 (binding medium). Cells were then incubated at 22° C. for 40 min with continuous rotation. After incubation cells were transferred to the tubes containing 800 μl of 10% sucrose in PBS and harvested by centrifugation. The supernatant was aspirated and the cell-associated radioactivity was measured using a 1272 Wallac gamma counter. Binding assays were performed with the 174xCEM and Sup-T1 cells expressing CCR5 in duplicates by adding unlabeled competitor (peptide or control chemokine) and radiolabeled chemokine, 0.2 ng/ml (^125I-MIP-1β or ^125I-SDF-1α, specific activity 2000 Ci/mmol, NEN life Science Products) to 300 μl cell suspension (4×10^6 cells/ml) in RPMI 1640 supplemented with 1% bovine serum albumin, 0.1% sodium azide and 25 mM HEPES pH 8.0 (binding medium). Cells were then incubated at 22° C. for 30 min with continuous rotation. After incubation cells were transferred to the tubes containing 800 μl of 10% sucrose in PBS and harvested by centrifugation, the supematant was aspirated and the cell-associated radioactivity was measured using a 1272 Wallac gamma counter. The data were analyzed by nonlinear regression using the computer program GraphPad Prizm 3.0. […]"}, "CXCR4 [2]": {"target": "T1, CXCR4", "assay": "Ca2+ mobilization in THP-1 cells in response to SDF-1α (fura-2)", "assay_type": "cell-based", "settings": "peptide 500 μM preincubated, SDF-1α 100 ng/ml, FIG. 6", "experimental": "FIGS. 6A through 6D depict the effect of peptide pre-treatment on the mobilization of intracellular Ca^2+ in THP-1 cells in response to SDF-1α. Cells loaded with fura-2 were preincubated with peptide 15K (FIG. 6C), 15D (FIG. 6B) and 15CW (FIG. 6D) at a final concentration of 500 μM for 3 min prior to stimulation with SDF-1α (100 ng/ml).\nTHP-1 cells (12×10^6/ml in RPMI 1640 containing 10% FSB) were loaded in the presence of 5 μM fura-2 AM (Molecular Probes, Eugene, Oreg.) at 22° C. for 30 min in the dark. Subsequently, cells were washed three times and resuspended (10^6 cells/ml) in the buffer containing 138 mM sodium chloride, 6 mM potassium chloride, 1 mM calcium chloride, 1 mM magnesium chloride, 10 mM HEPES, pH 7.4,5 mM glucose, and 0.1% bovine serum albumin. 1.93 ml of loaded cells was transferred into a quartz cuvette. 50 μl of a peptide stock solution (2×10^−2 M) was added to the cells, and after 3 min of incubation 20 μl of human SDF-1α (10 μg/ml, PeproTech) was added to a stirred cuvette. The measurements were performed using luminescence spectrophotometer LS50 B (Perkin-Elmer). Ca^2+ mobilization in the cells in response to SDF-1α was measured by analysis of the ratio of fluorescence emitted at 510 nm after sequential excitation at 340 and 380 nm.\nThe increase of intracellular Ca^2+ concentration mediated by a chemokine receptor in response to a cognate chemokine is a reliable assay for measurement of chemokine agonist activity. The human monocytic cell line THP-1 expresses a high level of CXCR4 and responds well to SDF-1α stimulation (FIG. 6A), so these cells were used to determine whether peptides 15D and 15K could block the activation of CXCR4."}, "HIV-1IIIB": {"tested_on": "HIV-1IIIB", "assay": "HIV-1IIIB infection of PBMC, p24 ELISA", "assay_type": "cell-based", "settings": "peptide 1 hr before HIV-1IIIB, p24 after 48 hr; FIG. 4", "experimental": "Peripheral blood mononuclear cells were treated with designated concentrations of peptide for a period of 1 hr prior to addition of HIV-1IIIB. After 2 hr, cells were washed, and viral replication was determined after 48 hr by analysis of p24 levels. Results are representative of 4 independent experiments.\nPBMCs were obtained from whole blood of normal donors and isolated by Ficoll-Paque Plus (Pharmacia Biotech, Piscataway, N.J.) density gradient centrifugation, and plated at a cell density of 2×10^6 cells/ml. Monocyte-derived macrophages (MDM) were generated from adherent human peripheral blood mononuclear cells by culture for 7 days with M-CSF (100 ng/ml). Cultures were maintained in RPMI-1640 medium (Life Technologies, Rockville, Md.) supplemented with 10% heat-inactivated endotoxin-free FCS (Hyclone, Logan, Utah), 10 μg/ml gentamicin, and 1 mM glutamine. Cells were treated with designated concentrations of the exemplary peptides 15K or 15D, and after 1 hr cells were infected with HIV-1IIIB (T cell tropic) or HIV-1JRFL (monocyte tropic) at an multiplicity of infection (MOI) of 0.1. After 2 hr, cells were washed, and cultured for additional 48-72 hr, followed by analysis of HIV replication as determined by quantification of accumulated p24 in the supernatant. The production of p24 was determined by conventional sandwich ELISA, using ELISA plates pre-coated with capture anti-p24 antibodies provided by the AIDS Vaccine Program (SAIC Frederick, NCI-FCRDC, Frederick, Md.). The captured p24 antigen was detected using rabbit anti-HIV-1 anti-p24 antibody, and a secondary goat anti-rabbit IgG (peroxidase-labeled) antibody. The captured p24 protein was detected using a 3,3′,5,5′-tetramethylbenzidine and hydrogen peroxide detection system (KPL Laboratories, Gaithersburg, Md.). The reaction was read spectrophotometrically at 450 nm. No cytotoxicity was detectable following treatment of PBMC with the peptides even at a concentration of 100 μg/ml.\nIn view of the foregoing binding inhibition studies, and considering the homology between the 15K and 15D peptides and the CXCR4 ligand SDF-1α, it was further undertaken to determine the capacity of the synthetic peptides to inhibit CXCR4 co-receptor function. In particular, experiments were carried out to assess the ability of 15K or 15D to alter the infection of PBMCs with the T cell-tropic […] strain. […] Significant inhibition of HIV-1 infection was detected with concentrations of peptides as low as 10 ng/ml."}, "CXCR4 [3]": {"target": "T1, CXCR4", "assay": "Binding of anti-CXCR4 antibody 12G5 to CEMx174 cells (flow cytometry)", "set-up": "host or cells: CEMx174 (174xCEM)", "settings": "CEMx174 cells, preincubation 60 min 22° C.; FIG. 5", "experimental": "FIG. 5A. Dose dependent effect of peptide 15K in comparison with SDF-1α. FIG. 5B. The comparison of the effects of 15K and 15D. FIG. 5C. The comparison of the effects of 15K and 15KS. Cells were preincubated at 22° C. with peptides at designated concentrations of SDF-1α for 60 min. Then cells were incubated with FITC-labeled anti-human CXCR4 monoclonal antibodies 12G5 for 40 min at 22° C. and washed with FACS buffer prior to flow cytometry.\nCEMx174 cells were pelleted and resuspended at 10^6 cells/ml in PBS containing 1% BSA and 0.1% sodium azide (FACS buffer). Cells were then preincubated with designated concentrations of peptides or SDF-1-α (1 μg/ml) at 22° C. for 60 min. FITC-labeled anti-human CXCR4 antibody (clone 12G5, BD PharMingen, San Diego, Calif.) was added to the cells per the manufactures instructions and further incubated at 22° C. for 40 minutes. Cells were extensively washed with FACS buffer and analyzed using a FACS Calibur flowcytometer (Becton Dickinson). HEK/CCR5 cells were suspended in Dulbecco's PBS containing 1% FCS and 0.05% NaN3 (10^4 cells in 100 μl) and incubated with or without 5 μg of MIP-1β (PeproTech, Rocky Hill, N.J.), 0.1 mM peptide 15D or 15K for 45 min at 22° C. Cells were then treated with FITC-conjugated anti-human CCR5 antibody (2D7; BD PharMingen, San Diego, Calif.), and incubated for 30 min at 22° C. Cells were washed twice, and analyzed using a FACScan flow cytometer (Becton Dickinson Immunocytometry Systems, San Jose, Calif.).\nTo determine if peptides 15D and 15K interact directly with chemokine receptors the effect of these and control peptides on the binding of anti-chemokine receptor antibodies to CXCR4 and CCR5 was studied. The monoclonal antibody 12G5 recognizes a conformational extracellular epitope on CXCR4. This antibody blocks the infectivity of some X4 strains of HIV-1 and HIV-2 (Endres et al., Cell 87:745-756, 1996; Hoxie et al., J. Reprod. Immunol. 41:197-211(1998); McKnight et al., J. Virol. 74:1692-1696(1997), 19, 26). […] Further, the binding of 12G5 to CXCR4 receptor-expressing cells is prevented by anti-HIV compounds. […] 73:2752-2761, 1999. To determine the importance of the particular amino acid sequence of the inhibitory activity of the peptides. The effects of peptide 15K and the corresponding scrambled peptide 15KS on binding of 12G5 to CXCR4 was compared. […] Apparently there is a direct correlation between the ability of 15K to inhibit the anti-CXCR4 antibody binding and its ability to inhibit HIV-1 infectivity since the scrambled peptide 15KS with the same amino acid comparison has reduced ability to manifest both these activities."}}, "note": "Entries after “also recorded” stand apart in the source; their conditions may differ."}
{"substance": "G I G D P V T C L K S G A I A (GIGDPVTCLKSGAIA) [Peptide 15GIG, reference compound]", "values": [{"measurement": "inhibition of SDF-1α binding to CXCR4", "setting": "CXCR4 [1]", "value": "significantly lower competing activity"}]}
{"substance": "I R K A H C W I D R A D N N S [Peptide 15CW, reference compound]", "values": [{"measurement": "inhibition of Ca2+ mobilization in response to SDF-1α", "setting": "CXCR4 [2]", "value": "less effective"}]}
{"substance": "K I N S W R A D N I H C K A R (KINSWRADNIHCKAR) [Peptide 15KS, reference compound]", "values": [{"measurement": "inhibition of T cell-tropic HIV-1 infection of PBMCs (p24)", "setting": "HIV-1IIIB", "value": "significantly less inhibition"}, {"measurement": "inhibition of 12G5 antibody binding to CXCR4", "setting": "CXCR4 [3]", "value": "significantly less inhibitory activity; also recorded: a low level of inhibitory activity"}]}
